Experimental data published in patent publication US20150344570A1 (published 2015).

T1: FcγRIIa R (human, UniProt P12318 34-217)
T1 construct: extracellular domain; also called FcgRIIa R type; 2aR
T1 sequence (looked up): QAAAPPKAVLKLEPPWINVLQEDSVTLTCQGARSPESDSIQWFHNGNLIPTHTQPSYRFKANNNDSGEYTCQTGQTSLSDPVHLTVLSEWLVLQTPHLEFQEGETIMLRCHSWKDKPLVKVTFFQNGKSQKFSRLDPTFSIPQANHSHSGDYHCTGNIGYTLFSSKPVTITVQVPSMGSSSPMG

T2: FcγRIIb (human, UniProt P31994 43-217)
T2 construct: extracellular domain; also called FcgRIIb; 2b
T2 sequence (looked up): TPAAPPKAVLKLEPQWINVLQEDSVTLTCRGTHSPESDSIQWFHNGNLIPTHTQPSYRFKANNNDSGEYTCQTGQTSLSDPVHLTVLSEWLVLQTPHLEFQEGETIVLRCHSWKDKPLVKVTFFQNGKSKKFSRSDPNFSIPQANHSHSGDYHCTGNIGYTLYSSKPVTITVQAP


Experiments:
FcγRIIa R [1] = biological target: T1, FcγRIIa R; assay: SPR (Biacore), captured antibody, FcγR as analyte; relative binding, control GpH7-A5/GpH7-B3/GpL16-k0 = 100
FcγRIIb = biological target: T2, FcγRIIb; assay: as above
FcγRIIa R [2] = biological target: T1, FcγRIIa R; assay: SPR (Biacore); He/Con_2aR divided by He/Con_2b (FcγRIIa R over FcγRIIb)
FcγRIa = biological target: T3, FcγRIa (human, UniProt P12314 16-292); assay: SPR (Biacore), captured antibody, FcγRIa analyte; relative to GpH7-B3/GpL16-k0
T3 construct: extracellular domain; soluble His-tagged extracellular domain expressed in FreeStyle293 cells, used as analyte in Biacore; also called FcgRI; CD64
T3 sequence (P12314 16-292): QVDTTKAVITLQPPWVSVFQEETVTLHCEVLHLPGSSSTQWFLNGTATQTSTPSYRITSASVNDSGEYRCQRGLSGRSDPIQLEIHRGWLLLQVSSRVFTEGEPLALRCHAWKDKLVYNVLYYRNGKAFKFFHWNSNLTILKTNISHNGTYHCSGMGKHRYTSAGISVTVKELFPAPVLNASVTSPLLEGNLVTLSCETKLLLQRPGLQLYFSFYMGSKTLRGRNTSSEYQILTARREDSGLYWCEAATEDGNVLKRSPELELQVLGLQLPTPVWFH

He/Con_2aR (FcγRIIa R [1]) [control = 100]	He/Con_2b (FcγRIIb) [control = 100]	He_2aR/2b (IIaR/IIb) (FcγRIIa R [2]) [ratio]	Ho/Con_1a (FcγRIa)	Binder
76.5	57.2	1.34	–	GpH7-A5/GpH7-B3 variant V266_16H/GpL16-k0 (antibody, human IgG1, kappa, heterodimerized anti-glypican-3 IgG1; alteration in one H chain only; also called He Ab) heavy 1: not shown heavy 2: not shown light: DIVMTQSPLSLPVTPGEPASISCQASESLVHSNRNTYLHWYLQKPGQSPQLLIYKVSNRFSGVPDRFSGSGSGTDFTLKISRVEAEDVGVYYCSQNTHVPPTFGQGTKVEIERTVAAPSVFIFPPSDEQLKSGTASVVCLLNNFYPREAKVQWKVDNALQSGNSQESVTEQDSKDSTYSLSSTLTLSKADYEKHKVYACEVTHQGLSSPVTKSFNRGEC
–	–	–	105 relative, control = 100	GpH7-B3 variant T335_04F/GpL16-k0 (antibody, human IgG1, kappa, homodimerized IgG1, mutation in both H chains; also called Ho Ab) heavy: not shown light: DIVMTQSPLSLPVTPGEPASISCQASESLVHSNRNTYLHWYLQKPGQSPQLLIYKVSNRFSGVPDRFSGSGSGTDFTLKISRVEAEDVGVYYCSQNTHVPPTFGQGTKVEIERTVAAPSVFIFPPSDEQLKSGTASVVCLLNNFYPREAKVQWKVDNALQSGNSQESVTEQDSKDSTYSLSSTLTLSKADYEKHKVYACEVTHQGLSSPVTKSFNRGEC
99.6	79.5	1.25	–	GpH7-A5/GpH7-B3 variant Y296_12R/GpL16-k0 (antibody, human IgG1, kappa, heterodimerized anti-glypican-3 IgG1; alteration in one H chain only; also called He Ab) heavy 1: not shown heavy 2: not shown light: DIVMTQSPLSLPVTPGEPASISCQASESLVHSNRNTYLHWYLQKPGQSPQLLIYKVSNRFSGVPDRFSGSGSGTDFTLKISRVEAEDVGVYYCSQNTHVPPTFGQGTKVEIERTVAAPSVFIFPPSDEQLKSGTASVVCLLNNFYPREAKVQWKVDNALQSGNSQESVTEQDSKDSTYSLSSTLTLSKADYEKHKVYACEVTHQGLSSPVTKSFNRGEC
–	–	–	107 relative, control = 100	GpH7-B3 variant A330_04F/GpL16-k0 (antibody, human IgG1, kappa, homodimerized IgG1, mutation in both H chains; also called Ho Ab) heavy: not shown light: DIVMTQSPLSLPVTPGEPASISCQASESLVHSNRNTYLHWYLQKPGQSPQLLIYKVSNRFSGVPDRFSGSGSGTDFTLKISRVEAEDVGVYYCSQNTHVPPTFGQGTKVEIERTVAAPSVFIFPPSDEQLKSGTASVVCLLNNFYPREAKVQWKVDNALQSGNSQESVTEQDSKDSTYSLSSTLTLSKADYEKHKVYACEVTHQGLSSPVTKSFNRGEC
94.3	72.8	1.3	–	GpH7-A5/GpH7-B3 variant Y296_11K/GpL16-k0 (antibody, human IgG1, kappa, heterodimerized anti-glypican-3 IgG1; alteration in one H chain only; also called He Ab) heavy 1: not shown heavy 2: not shown light: DIVMTQSPLSLPVTPGEPASISCQASESLVHSNRNTYLHWYLQKPGQSPQLLIYKVSNRFSGVPDRFSGSGSGTDFTLKISRVEAEDVGVYYCSQNTHVPPTFGQGTKVEIERTVAAPSVFIFPPSDEQLKSGTASVVCLLNNFYPREAKVQWKVDNALQSGNSQESVTEQDSKDSTYSLSSTLTLSKADYEKHKVYACEVTHQGLSSPVTKSFNRGEC
–	–	–	108 relative, control = 100	GpH7-B3 variant H268_01G/GpL16-k0 (antibody, human IgG1, kappa, homodimerized IgG1, mutation in both H chains; also called Ho Ab) heavy: not shown light: DIVMTQSPLSLPVTPGEPASISCQASESLVHSNRNTYLHWYLQKPGQSPQLLIYKVSNRFSGVPDRFSGSGSGTDFTLKISRVEAEDVGVYYCSQNTHVPPTFGQGTKVEIERTVAAPSVFIFPPSDEQLKSGTASVVCLLNNFYPREAKVQWKVDNALQSGNSQESVTEQDSKDSTYSLSSTLTLSKADYEKHKVYACEVTHQGLSSPVTKSFNRGEC
95.8	79.3	1.21	–	GpH7-A5/GpH7-B3 variant Y296_01G/GpL16-k0 (antibody, human IgG1, kappa, heterodimerized anti-glypican-3 IgG1; alteration in one H chain only; also called He Ab) heavy 1: not shown heavy 2: not shown light: DIVMTQSPLSLPVTPGEPASISCQASESLVHSNRNTYLHWYLQKPGQSPQLLIYKVSNRFSGVPDRFSGSGSGTDFTLKISRVEAEDVGVYYCSQNTHVPPTFGQGTKVEIERTVAAPSVFIFPPSDEQLKSGTASVVCLLNNFYPREAKVQWKVDNALQSGNSQESVTEQDSKDSTYSLSSTLTLSKADYEKHKVYACEVTHQGLSSPVTKSFNRGEC
–	–	–	106 relative, control = 100	GpH7-B3 variant A330_01G/GpL16-k0 (antibody, human IgG1, kappa, homodimerized IgG1, mutation in both H chains; also called Ho Ab) heavy: not shown light: DIVMTQSPLSLPVTPGEPASISCQASESLVHSNRNTYLHWYLQKPGQSPQLLIYKVSNRFSGVPDRFSGSGSGTDFTLKISRVEAEDVGVYYCSQNTHVPPTFGQGTKVEIERTVAAPSVFIFPPSDEQLKSGTASVVCLLNNFYPREAKVQWKVDNALQSGNSQESVTEQDSKDSTYSLSSTLTLSKADYEKHKVYACEVTHQGLSSPVTKSFNRGEC
–	–	–	103 relative, control = 100	GpH7-B3 variant D265_10E/GpL16-k0 (antibody, human IgG1, kappa, homodimerized IgG1, mutation in both H chains; also called Ho Ab) heavy: not shown light: DIVMTQSPLSLPVTPGEPASISCQASESLVHSNRNTYLHWYLQKPGQSPQLLIYKVSNRFSGVPDRFSGSGSGTDFTLKISRVEAEDVGVYYCSQNTHVPPTFGQGTKVEIERTVAAPSVFIFPPSDEQLKSGTASVVCLLNNFYPREAKVQWKVDNALQSGNSQESVTEQDSKDSTYSLSSTLTLSKADYEKHKVYACEVTHQGLSSPVTKSFNRGEC
